Reference: paper PMC4105859, “Characterization of the SAM domain of the PKD-related protein ANKS6 and its interaction with ANKS3” (BMC Structural Biology, 2014)

B2: His6-tagged ANKS3-SAM (domain or fragment, human, UniProt Q6ZW76 421-490, looked up)
chain: RAPYSGPQDLAALLEQIGCLKYLQVFEEQDVDLRIFLTLTESDLKEIGITLFGPKRKMTSAIARWHSSAR
notes: ANKS3, human, SAM domain, residues 421-490 of UniProt Q6ZW76; pET28 vector; also called ANKS3-SAM (negGFP removed); ANKS3-SAM precipitate; source: Rosetta(DE3) cells, purified (Ni-NTA); precipitated after purification

Key:
[1] = target: the molecule itself; test: negative stain transmission electron microscopy; purified protein or its precipitate on carbon/formvar grids, 1% uranyl acetate, 120 kV
ANKS6-SAM wt [2] = target: T1, ANKS6-SAM wt (human, UniProt Q68DC2 771-840); test: SPR; value printed in panel; legend gives 249 nM
T1 chain: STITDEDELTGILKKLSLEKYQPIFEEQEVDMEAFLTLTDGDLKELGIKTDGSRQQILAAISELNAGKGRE

ANKS6-SAM wt [3] = target: T1, ANKS6-SAM wt; test: SPR; ANKS6-SAM wt immobilised on CM5 (EDC/NHS), ANKS3-SAM I36E flowed over; Biacore T100, 21°C, 20 mM HEPES pH 7.5, 1 mM DTT, 0.04% IGEPAL CA-630, 0.15 M NaCl; equilibrium, 1:1 steady-state model, triplicate
ANKS3-SAM F53E = target: T2, ANKS3-SAM F53E; test: SPR; conditions: chain shown with the change, read off a plot
T2 chain: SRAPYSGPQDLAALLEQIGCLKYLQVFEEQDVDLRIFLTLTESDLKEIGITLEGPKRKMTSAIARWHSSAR

ANKS3-SAM F53E (human) = test: SPR; ANKS3-SAM F53E immobilised on CM5 (EDC/NHS), ANKS3-SAM I36E flowed over; Biacore T100, 21°C, 20 mM HEPES pH 7.5, 1 mM DTT, 0.04% IGEPAL CA-630, 0.15 M NaCl; equilibrium, 1:1 steady-state model, triplicate; Kd called an approximation since saturation was not reached
His6-tagged ANKS3-SAM = target: B2; test: resolubilisation of a precipitate; His6-ANKS3-SAM precipitate (3.2 mg/mL dialysed into 20 mM Tris pH 7, 0.25 M NaCl, 1 mM DTT); His6-ANKS6-SAM at 3.3 mg/mL or buffer alone added at 2:1, 1:1, 1:2; 3 h on ice; conditions: both partners purified

B1: negGFP-ANKS3-SAM fusion protein (domain or fragment, human, UniProt Q6ZW76 421-490, looked up)
chain: RAPYSGPQDLAALLEQIGCLKYLQVFEEQDVDLRIFLTLTESDLKEIGITLFGPKRKMTSAIARWHSSAR
notes: ANKS3 (ankyrin repeat and SAM-domain containing protein 3), human, SAM domain, residues 421-490 of UniProt Q6ZW76; source: ARI814 cells, in lysate (native gel); purified (Ni-NTA, HiTrap Q) for TEM
B1: binds [1].

B2: binds [1].

B3: ANKS3-SAM I36E (domain or fragment)
chain: SRAPYSGPQDLAALLEQIGCLKYLQVFEEQDVDLREFLTLTESDLKEIGITLFGPKRKMTSAIARWHSSAR
Work on B3 yielded a Kd (ANKS6-SAM wt [2]) of 270 nM, a Kd (ANKS6-SAM wt [3]) of 249 nM and an other: Log (Kd) (ANKS3-SAM F53E; Log [NaCl] est. -0.60) of 4. The other: Log (Kd) (ANKS3-SAM F53E; Log [NaCl] est. -0.70) was 3.9, the other: Log (Kd) (ANKS3-SAM F53E; Log [NaCl] est. -0.82) was 3.8 and the other: Log (Kd) (ANKS3-SAM F53E; Log [NaCl] est. -1.0) was 3.7. For the same binder, the Kd (ANKS3-SAM F53E (human)) was 5.8 µM.

B4: His6-tagged ANKS6-SAM (domain or fragment, human, UniProt Q68DC2 771-840, looked up)
chain: TITDEDELTGILKKLSLEKYQPIFEEQEVDMEAFLTLTDGDLKELGIKTDGSRQQILAAISELNAGKGRE
notes: ANKS6, human, SAM domain, residues 771-840 of UniProt Q68DC2; pBAD-HisA vector; source: ARI814 cells, purified (HiTrap IMAC, HiTrap Q)
B4: binds (His6-tagged ANKS3-SAM).
